Assay [1] concerns the target Avi-tagged follistatin-288, biotinylated (UniProt P19883). Kind of assay: BLI; biotinylated Avi-tagged FST-288 immobilised on streptavidin biosensors; analytes in kinetic buffer (PBS, 0.1% bovine serum albumin, 0.02% Tween-20); 600 s association, 600 s dissociation; 30 °C. A general note: In BLI a coated tip is dipped into the sample, and binding shifts an interference pattern.

In assay [2] the target is myostatin mature domain (Homo sapiens) (UniProt O14793). Particulars: cited from earlier work.
Sequence of myostatin mature domain (Homo sapiens) (O14793 267-375): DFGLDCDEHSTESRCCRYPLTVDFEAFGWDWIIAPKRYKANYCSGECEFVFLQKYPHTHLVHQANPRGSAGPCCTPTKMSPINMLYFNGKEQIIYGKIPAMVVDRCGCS
Assay [3] has as its target activin A mature domain (Homo sapiens) (UniProt P08476). Particulars: cited from earlier work.
Assay [4] deals with myostatin mature domain mature domain (Homo sapiens) (UniProt O14793). Particulars: cited from earlier work.
Sequence of myostatin mature domain mature domain (Homo sapiens) (O14793 267-375): as above

One may read the Kd as the concentration at which binding is half-saturated.

Sequence of follistatin FST-288 (P19883 30-344): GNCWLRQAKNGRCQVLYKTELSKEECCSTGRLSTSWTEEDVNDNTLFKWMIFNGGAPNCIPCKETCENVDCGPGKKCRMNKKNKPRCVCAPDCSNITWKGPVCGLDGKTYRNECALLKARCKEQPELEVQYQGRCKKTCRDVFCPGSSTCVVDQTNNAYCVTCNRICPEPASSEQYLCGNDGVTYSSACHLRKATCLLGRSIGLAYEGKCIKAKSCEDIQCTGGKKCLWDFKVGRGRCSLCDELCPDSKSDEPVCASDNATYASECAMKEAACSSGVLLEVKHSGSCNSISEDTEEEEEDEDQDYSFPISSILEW
Sequence of follistatin (P19883 30-344): as above
Sequence of Avi-tagged follistatin-288, biotinylated (P19883 30-317): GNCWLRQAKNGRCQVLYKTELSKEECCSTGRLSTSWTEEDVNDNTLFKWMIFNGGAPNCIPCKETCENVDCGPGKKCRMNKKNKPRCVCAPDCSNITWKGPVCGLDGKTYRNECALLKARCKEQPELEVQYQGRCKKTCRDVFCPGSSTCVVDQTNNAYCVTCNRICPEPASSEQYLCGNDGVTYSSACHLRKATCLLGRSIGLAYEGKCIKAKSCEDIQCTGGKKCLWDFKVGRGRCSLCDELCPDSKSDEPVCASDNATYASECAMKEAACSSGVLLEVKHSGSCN
Sequence of activin A mature domain (Homo sapiens) (P08476 311-426): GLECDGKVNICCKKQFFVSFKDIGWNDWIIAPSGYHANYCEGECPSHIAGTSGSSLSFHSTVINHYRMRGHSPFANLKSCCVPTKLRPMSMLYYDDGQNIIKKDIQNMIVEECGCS
Sequence of myostatin pro-domain pro-domain (O14793 24-266): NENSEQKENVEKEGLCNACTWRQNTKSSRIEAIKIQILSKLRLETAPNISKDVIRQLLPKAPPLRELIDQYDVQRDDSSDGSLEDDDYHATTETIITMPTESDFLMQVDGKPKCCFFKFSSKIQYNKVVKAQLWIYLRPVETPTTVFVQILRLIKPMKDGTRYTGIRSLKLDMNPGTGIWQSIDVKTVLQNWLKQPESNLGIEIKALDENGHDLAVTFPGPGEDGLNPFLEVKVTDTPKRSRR

“cleaved pro-activin A complex (pro-mature complex) (from UniProt P08476 311-426)” returned a dissociation constant (Kd) in assay [1] of 0.259 nM. On to follistatin (from UniProt P19883), for which the equilibrium dissociation constant (Kd) in assay [2] is 12.3 nM. Take “follistatin FST-288 (from UniProt P19883)”: the Kd in assay [3] was 0.0465 nM. As to “myostatin pro-domain pro-domain (from UniProt O14793)”, the equilibrium dissociation constant (Kd) in assay [4] is 8.3 nM.

Values taken from paper PMC4932183.
